The target in this experiment is PP2A catalytic subunit alpha (Homo sapiens, UniProt P67775). Description: biolayer interferometry (PP2A immobilized).
Chain of PP2A catalytic subunit alpha (P67775 whole entry): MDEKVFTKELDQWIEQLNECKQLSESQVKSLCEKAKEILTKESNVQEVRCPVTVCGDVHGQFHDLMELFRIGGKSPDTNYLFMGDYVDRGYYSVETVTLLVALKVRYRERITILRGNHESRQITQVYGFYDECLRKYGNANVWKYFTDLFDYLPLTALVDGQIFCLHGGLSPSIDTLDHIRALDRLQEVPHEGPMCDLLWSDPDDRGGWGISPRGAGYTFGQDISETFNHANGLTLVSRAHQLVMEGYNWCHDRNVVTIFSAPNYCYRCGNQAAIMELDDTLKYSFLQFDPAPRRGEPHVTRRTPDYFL

B1: Caspase 9 (protein)
chain: DEADRRLLRRCRLRLVEELQVDQLWDALLSRELFRPHMIEDIQRAGSGSRRDQARQLIIDLETRGSQALPLFISCLEDTGQDMLASFLRTNRQAAKLSKPTLENLTPVVLRPEIRKPEVLRPETPRPVDIGSGGFGDVGALESLRGNADLAYILSMEPCGHCLIINNVNFCRESGLRTRTGSNIDCEKLRRRFSSLHFMVEVKGDLTAKKMVLALLELAQQDHGALDCCVVVILSHGCQASHLQFPGAVYGTDGCPVSVEKIVNIFNGTSCPSLGGKPKLFFIQACGGEQKDHGFEVASTSPEDESPGSNPEPDATPFQEGLRTFDQLDAISSLPTPSDIFVSYSTFPGFVSWRDPKSGSWYVETLDDIFEQWAHSEDLQSLLLRVANAVSVKGIYKQMPGCFNFLRKKLFFKTS
As usually defined, the Kd is the constant that tells how readily two partners part at equilibrium. A lower Kd goes with tighter binding. On to B1, for which the Kd came out at 228 nM.
